Substrate: O=C(O)[C@@H](O)[C@H](O)[C@H](O)[C@@H](O)C(=O)O
Assay: purified protein
Conditions: dehydration, 20 mM HEPES pH 7.9, 5 mM MgCl2, 1 μM enzyme

B1: A9CG74 (GalrD-III) (Agrobacterium fabrum str. C58) (protein)
chain: MKIDRMRVFVTRDKDRPRVIVALDTDDGMTGWGECYNHGPDLALPPVLDYLYNFLAGQDPTRVEFLYNLMLQQNRFPPGALGLSAISALDHCLWDLAAKAVGVPVYKLLGGEVRNRIKVYAGVYTAPDAPAARDEFDRLNEGWGFSAFKLSPWRVDIHAHRWGEVVRSSAEYFRTLRETVRADYDIAFDAHAKIFEPSAARQLGNALAPYDPLFYEEPLRPENIEMYGDLKQGLNCTLATGESLYNRNEFLRLLQVKGADIIQPDICVVGGISEMRRIATLAEAHFVSIAPHNPMGPLATAVNVHFCAVQQNFRILEYRLPKGQVYAYGGNDLVKEEDVTRYVVDPYLPRDGYLELRPDRPGWGVEMDEKAMQEDGYVHWQRRVPKRPDGSYAFA
Km: 80 ± 30 µM
kcat: 0.12 ± 0.05 s⁻¹
kcat/Km: 1500 M⁻¹ s⁻¹

— PMC4081050
